The values below come from publication PMC5668364, “Structure and functional dynamics of the mitochondrial Fe/S cluster synthesis complex” (Nature Communications, 2017).

A word on the stoichiometry N: it is a count of units in the complex or per binding partner.

Like-named read-outs stand apart in the source and are kept apart here.

First the molecules themselves.
B3: Chaetomium thermophilum CtNfs1 (enzyme)
chain: MANLAPSVLRQASRLATRSSSSTSSLFAAAPRRAATLLSRRAAIAPATHAHPSRRASRSYVTDTKADNAQAQTEAAVRLDSQELEKAEKSVPSFEAQNGSTTHVSPMADILKGATRMGEGQRPIYLDMQATTPVDPRVLDAMLPYYVGIFGNPHSRTHAYGWETERAVEKAREHIAALIGADPKEIIFTSGATESNNMSIKGVARFFGRTGKKRHIITSQTEHKCVLDSCRHLQDEGYEVTYLPVNNKGLINLDELRDAIRPDTALVSIMAVNNEIGVIQPIAEIGKICREKKVFFHTDGAQAVGKIPIDVNAMNIDLMSISSHKIYGPKGIGACYVRRRPRVRIEPIISGGGQERGLRSGTLAPALVVGFGEACRIAKEELEYDLKHVKRLSERLLKGVLSIECTHQNGDPENGYPGCVNVSFAYVEGESLLMALNDVALSSGSACTSASLEPSYVLRALGNSDENAHSSIRFGIGRFTTEAEIDYVVKAVQDRVGFLRELSPLWELVQEGVDLNTIEWTQH

For data set [1], the target named is B3. The data set can be described thus: SAXS; complexes of NFS1 with ISCU, FDX2 (reduced with dithionite) and/or frataxin mixed in 1:1, 1:1:1 ratios in buffer S1 in an anaerobic chamber, after size exclusion chromatography; rigid body modelling. (Size exclusion chromatography separates by hydrodynamic size, large species first.)
For data set [2], the target named is human NFS1 of the NFS1-ISD11(-His10) complex for biochemistry and SAXS (human). The data set can be described thus: SAXS; (NIA)2 complexes incubated with cysteine (buffer S1 with 5 mM Cys: 35 mM Tris-HCl pH 7.4, 150 mM NaCl), after size exclusion chromatography.
A further data set concerns the target T1, human ISD11-His10 (human, UniProt Q9HD34 1-91).
T1 construct: human ISD11 (LYRM4); source: E. coli, co-expressed with NFS1, purified (Ni-Sepharose, gel filtration)
The data set can be described thus: affinity purification with mass spectrometry; NFS1-ISD11(-His10) purified by Ni-Sepharose and gel filtration from E. coli grown in TB (energy-rich) medium; Orbitrap mass spectrometry of the trypsin-digested purified solution. To be noted: partners not purified.

Data set [3] has as its target T2, human ISD11, full length, no tag (human, UniProt Q9HD34 1-91).
T2 construct: human ISD11 (LYRM4), full length, plasmid pZM4; also called LYRM4; I of (NIA)2 and (NIAU)2; source: E. coli One Shot BL21 Star (DE3), co-expressed with NFS1, co-purified (Ni-NTA)
The data set can be described thus: crystal structure; (NIA)2 complex, 2.75 Å, space group R32; crystals from 100 mM MES pH 6.5, 0.3 M ammonium acetate, 20 mM calcium acetate, 20 mM CaCl2, 19% isopropanol, 12 °C. To be noted: both partners purified.

Data set [4] deals with the molecule itself. Description: SAXS; (NIA)2 complexes incubated with cysteine (buffer S1 with 5 mM Cys: 35 mM Tris-HCl pH 7.4, 150 mM NaCl), after size exclusion chromatography.

T1 sequence (Q9HD34 whole entry): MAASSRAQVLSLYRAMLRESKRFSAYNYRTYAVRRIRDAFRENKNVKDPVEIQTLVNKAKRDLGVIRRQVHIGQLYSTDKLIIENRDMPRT
T2 sequence (Q9HD34 whole entry): as above

With “Chaetomium thermophilum CtFdx2 (reduced ferredoxin) (natural protein)”, the stoichiometry N in data set [1] was 1. On to “human NFS1 of the NFS1-ISD11(-His10) complex for biochemistry and SAXS (enzyme)”, for which the stoichiometry N in data set [2] was found to be 2.

B1: E. coli acyl carrier protein (ACP) (natural protein, UniProt P0A6A8 1-78, looked up)
chain: MSTIEERVKKIIGEQLGVKQEEVTNNASFVEDLGADSLDTVELVMALEEEFDTEIPDEEAEKITTVQAAIDYINGHQA
modifications: Ser36-linked phosphopantetheine with attached fatty acyl chain (12 carbons modelled; 14 carbons by mass spectrometry of dissolved crystals)
notes: E. coli acyl carrier protein; the acyl chain length is said to depend on the growth medium; also called E. coli ACP; A of (NIA)2; source: endogenous E. coli protein, co-purified with NFS1-ISD11 expressed in E. coli
In the case of B1, the binding result (with human ISD11-His10; in data set [3]) was “binds” throughout.

B2: Chaetomium thermophilum CtIsu1-His6 (natural protein)
chain: MFSKTARAVSSRALASPLWSTAIPVTRPLSCQLAWPQTRQYHEKVLDHYSRPRNVGSLDKTDKSVGEGLVGAPACGDVMRLHIKVDPETKVISDVRFKTFGCGSAIASSSYLTELVRGMTLEQAAQVKNTQIAKELCLPPVKLHCSMLAEDAIKSAINNYYKKNPEARPTNLAGRGNNKLETASQSTQ
On to B2, for which the “stoichiometry N” value in data set [1] (both partners purified) worked out at 1. Take B3: in data set [4], the “stoichiometry N” value worked out at 2.
